Seven molecules from US20160159879A1 (UNIVERSITY OF NORTH CAROLINA AT CHAPEL HILL, published 2016) can be followed below.

Ends that are not written are not given here. * marks the point of attachment. Biotin = O=C1N[C@H]2[C@H](CS[C@H]2CCCCC(=O)*)N1

In data set [1] the target is ENaC endogenous to primary human bronchial epithelial cultures (human) (UniProt P37088). Briefly: cell-based or functional assay.
For data set [2], the target named is αβγENaC expressed in Xenopus laevis oocytes (rat) (UniProt P37089). Briefly: cell-based or functional assay.
For data set [3], the target named is yfp-tagged αENaC stably expressed in JME nasal epithelial cells. Briefly: fluorescence binding isotherm on polarized JME cells expressing yfp-αENaC, 30 min, empty-vector cells as non-specific binding, Hill fit.
Data set [4] concerns T1, Recombinant V5/6His-tagged SPLUNC1 purified from HEK293 media.
T1 sequence: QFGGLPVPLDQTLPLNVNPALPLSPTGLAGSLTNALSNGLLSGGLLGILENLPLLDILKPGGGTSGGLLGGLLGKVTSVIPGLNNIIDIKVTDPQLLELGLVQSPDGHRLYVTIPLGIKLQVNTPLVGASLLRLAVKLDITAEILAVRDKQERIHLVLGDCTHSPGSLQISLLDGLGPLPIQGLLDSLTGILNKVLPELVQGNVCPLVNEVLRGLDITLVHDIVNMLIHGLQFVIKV

Data set [5] addresses T2, Human βENaC subunit, HA (N-terminus) and V5 (C-terminus) tagged, expressed in HEK293T cells (human, UniProt P51168 1-640, glycosylated (EndoH and tunicamycin experiments)).
T2 sequence (looked up): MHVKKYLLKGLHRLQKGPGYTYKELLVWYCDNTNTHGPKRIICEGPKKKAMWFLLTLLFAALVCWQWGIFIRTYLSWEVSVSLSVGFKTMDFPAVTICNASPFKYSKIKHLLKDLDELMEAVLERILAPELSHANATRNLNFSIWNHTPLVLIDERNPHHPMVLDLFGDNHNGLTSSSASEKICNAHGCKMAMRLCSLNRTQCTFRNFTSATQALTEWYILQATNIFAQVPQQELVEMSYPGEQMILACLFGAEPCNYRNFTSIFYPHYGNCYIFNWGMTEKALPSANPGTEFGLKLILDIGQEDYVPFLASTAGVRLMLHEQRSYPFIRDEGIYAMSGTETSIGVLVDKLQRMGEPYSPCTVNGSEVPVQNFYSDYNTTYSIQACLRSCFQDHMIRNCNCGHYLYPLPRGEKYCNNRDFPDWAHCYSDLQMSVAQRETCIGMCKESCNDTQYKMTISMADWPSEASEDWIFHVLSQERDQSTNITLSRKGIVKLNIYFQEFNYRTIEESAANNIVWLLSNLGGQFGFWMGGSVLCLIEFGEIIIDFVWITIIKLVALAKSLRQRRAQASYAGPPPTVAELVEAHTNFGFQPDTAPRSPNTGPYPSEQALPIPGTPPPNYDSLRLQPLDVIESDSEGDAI
Briefly: peptide pull-down on neutravidin beads, Western blot with anti-V5. A general note: Immunoblotting shows a protein as a band on a membrane.

Data set [6] has as its target αβγENaC expressed in Xenopus laevis oocytes (rat, UniProt P37089 1-698; P37090 1-638; P37091 1-650). Briefly: cell-based or functional assay.
In data set [7] the target is ENaC endogenous to primary human bronchial epithelial cultures (human, UniProt P37088 1-669; P51168 1-640; P51170 1-649). Briefly: cell-based or functional assay.
In data set [8] the target is T3, Human αENaC subunit, HA (N-terminus) and V5 (C-terminus) tagged, expressed alone in HEK293T cells (human, UniProt P37088 1-669).
T3 sequence (looked up): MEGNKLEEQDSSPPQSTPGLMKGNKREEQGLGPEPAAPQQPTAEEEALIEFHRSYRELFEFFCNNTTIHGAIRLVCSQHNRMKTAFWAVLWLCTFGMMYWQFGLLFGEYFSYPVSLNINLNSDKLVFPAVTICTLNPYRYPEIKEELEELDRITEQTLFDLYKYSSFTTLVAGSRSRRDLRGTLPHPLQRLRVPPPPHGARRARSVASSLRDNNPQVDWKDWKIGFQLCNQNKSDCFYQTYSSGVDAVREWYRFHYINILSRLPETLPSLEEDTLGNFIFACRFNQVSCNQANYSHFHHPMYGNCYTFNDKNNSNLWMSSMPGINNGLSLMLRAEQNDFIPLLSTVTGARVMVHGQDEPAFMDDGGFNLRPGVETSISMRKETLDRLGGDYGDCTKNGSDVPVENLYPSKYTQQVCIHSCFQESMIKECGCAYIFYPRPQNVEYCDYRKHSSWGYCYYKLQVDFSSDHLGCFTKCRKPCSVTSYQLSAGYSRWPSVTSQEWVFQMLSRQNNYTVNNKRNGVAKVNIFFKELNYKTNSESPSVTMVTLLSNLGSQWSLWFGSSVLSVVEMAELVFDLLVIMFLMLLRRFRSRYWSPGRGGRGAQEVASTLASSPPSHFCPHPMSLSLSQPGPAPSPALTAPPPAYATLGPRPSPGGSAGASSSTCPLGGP
Briefly: pull-down with biotinylated S18 of subunits expressed individually in HEK cells, Western blot.

Data set [9] has as its target T4, Human γENaC subunit, HA (N-terminus) and V5 (C-terminus) tagged, expressed alone in HEK293T cells (human, UniProt P51170 1-649).
T4 sequence (looked up): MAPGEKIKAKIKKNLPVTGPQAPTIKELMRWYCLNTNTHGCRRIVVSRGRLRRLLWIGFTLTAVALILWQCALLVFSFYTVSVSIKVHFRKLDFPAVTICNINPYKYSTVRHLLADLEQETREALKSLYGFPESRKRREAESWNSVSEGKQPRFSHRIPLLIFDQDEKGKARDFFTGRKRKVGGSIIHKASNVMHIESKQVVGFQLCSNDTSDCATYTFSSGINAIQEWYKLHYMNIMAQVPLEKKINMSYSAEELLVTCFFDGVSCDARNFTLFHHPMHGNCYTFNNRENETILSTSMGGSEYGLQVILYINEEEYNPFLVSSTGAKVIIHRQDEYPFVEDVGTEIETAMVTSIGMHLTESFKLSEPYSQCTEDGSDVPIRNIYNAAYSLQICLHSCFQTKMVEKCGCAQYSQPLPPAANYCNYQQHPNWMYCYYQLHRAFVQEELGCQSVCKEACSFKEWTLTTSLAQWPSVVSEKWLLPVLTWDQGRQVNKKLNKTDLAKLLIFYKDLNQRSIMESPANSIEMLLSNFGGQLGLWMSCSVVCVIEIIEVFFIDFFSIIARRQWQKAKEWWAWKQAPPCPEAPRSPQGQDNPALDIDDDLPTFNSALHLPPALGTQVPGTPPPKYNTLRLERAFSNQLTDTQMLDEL
The data set is described as above.

The term Kd denotes the equilibrium constant for the complex coming apart. The low end stands for a tighter complex, the high end for a looser complex.

αβγENaC expressed in Xenopus laevis oocytes (rat), sequence (P37089 whole entry, chain 1 of 3): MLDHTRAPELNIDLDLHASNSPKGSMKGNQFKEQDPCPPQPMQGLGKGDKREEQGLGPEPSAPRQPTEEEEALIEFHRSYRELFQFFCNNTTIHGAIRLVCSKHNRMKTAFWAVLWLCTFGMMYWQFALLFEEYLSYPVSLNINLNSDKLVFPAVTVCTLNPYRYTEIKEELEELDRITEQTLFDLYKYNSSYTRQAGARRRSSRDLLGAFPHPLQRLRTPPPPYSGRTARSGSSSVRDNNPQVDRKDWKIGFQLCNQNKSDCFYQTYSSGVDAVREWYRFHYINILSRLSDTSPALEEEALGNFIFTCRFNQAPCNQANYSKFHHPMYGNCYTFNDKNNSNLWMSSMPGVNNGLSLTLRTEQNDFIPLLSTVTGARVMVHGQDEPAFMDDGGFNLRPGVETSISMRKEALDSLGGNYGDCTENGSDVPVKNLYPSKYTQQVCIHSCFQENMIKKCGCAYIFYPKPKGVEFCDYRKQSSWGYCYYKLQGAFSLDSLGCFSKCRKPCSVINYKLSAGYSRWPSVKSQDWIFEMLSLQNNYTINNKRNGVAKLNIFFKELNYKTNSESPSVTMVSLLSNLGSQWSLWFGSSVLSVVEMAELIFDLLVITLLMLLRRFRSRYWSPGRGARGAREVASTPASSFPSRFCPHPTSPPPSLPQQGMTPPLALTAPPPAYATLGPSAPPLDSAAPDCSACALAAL
αβγENaC expressed in Xenopus laevis oocytes (rat), sequence (P37090 whole entry, chain 2 of 3, further chain): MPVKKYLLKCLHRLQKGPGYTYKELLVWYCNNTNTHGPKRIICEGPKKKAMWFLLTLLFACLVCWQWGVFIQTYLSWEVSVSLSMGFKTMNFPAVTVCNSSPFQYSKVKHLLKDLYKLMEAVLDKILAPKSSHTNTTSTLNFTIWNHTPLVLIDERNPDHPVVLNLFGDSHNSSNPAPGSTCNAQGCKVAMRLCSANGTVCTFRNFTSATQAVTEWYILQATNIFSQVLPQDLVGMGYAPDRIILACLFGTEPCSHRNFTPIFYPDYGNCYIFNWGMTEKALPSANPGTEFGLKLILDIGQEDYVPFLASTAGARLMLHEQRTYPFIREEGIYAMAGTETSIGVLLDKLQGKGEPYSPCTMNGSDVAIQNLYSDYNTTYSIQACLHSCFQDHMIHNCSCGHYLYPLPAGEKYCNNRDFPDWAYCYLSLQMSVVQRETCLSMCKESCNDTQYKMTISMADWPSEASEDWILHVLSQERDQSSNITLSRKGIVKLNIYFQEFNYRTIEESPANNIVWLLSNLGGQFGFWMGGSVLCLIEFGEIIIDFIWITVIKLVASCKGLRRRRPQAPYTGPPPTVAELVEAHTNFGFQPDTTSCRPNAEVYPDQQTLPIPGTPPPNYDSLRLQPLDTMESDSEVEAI
αβγENaC expressed in Xenopus laevis oocytes (rat), sequence (P37091 whole entry, chain 3 of 3, further chain): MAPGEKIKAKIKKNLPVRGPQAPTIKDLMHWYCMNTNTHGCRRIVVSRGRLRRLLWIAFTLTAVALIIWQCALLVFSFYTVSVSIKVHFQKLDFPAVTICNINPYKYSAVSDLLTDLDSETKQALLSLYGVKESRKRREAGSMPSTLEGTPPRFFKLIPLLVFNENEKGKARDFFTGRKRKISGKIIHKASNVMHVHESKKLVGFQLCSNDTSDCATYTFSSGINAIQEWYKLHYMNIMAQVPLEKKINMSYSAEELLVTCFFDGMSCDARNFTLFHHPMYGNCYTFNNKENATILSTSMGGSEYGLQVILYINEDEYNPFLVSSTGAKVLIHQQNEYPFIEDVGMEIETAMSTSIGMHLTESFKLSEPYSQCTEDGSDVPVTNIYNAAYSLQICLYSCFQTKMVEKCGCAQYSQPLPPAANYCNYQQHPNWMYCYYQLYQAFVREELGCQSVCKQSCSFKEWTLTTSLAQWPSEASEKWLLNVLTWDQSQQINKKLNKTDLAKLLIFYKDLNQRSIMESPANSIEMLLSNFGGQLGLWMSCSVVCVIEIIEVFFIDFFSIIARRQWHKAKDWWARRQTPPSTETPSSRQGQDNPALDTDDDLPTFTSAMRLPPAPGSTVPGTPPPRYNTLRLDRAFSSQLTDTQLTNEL
αβγENaC expressed in Xenopus laevis oocytes, sequence (P37089 whole entry, chain 1 of 3): as the sequence (P37089 whole entry, chain 1 of 3) above
αβγENaC expressed in Xenopus laevis oocytes, sequence (P37090 whole entry, chain 2 of 3): as the sequence (P37090 whole entry, chain 2 of 3, further chain) above
αβγENaC expressed in Xenopus laevis oocytes, sequence (P37091 whole entry, chain 3 of 3): as the sequence (P37091 whole entry, chain 3 of 3, further chain) above

Regarding “Recombinant V5/6His-tagged SPLUNC1 purified from HEK293 media (from UniProt Q9NP55 20-256)”, in data set [1], the transepithelial electrical resistance came to 33%. This molecule also had a decrease in ENaC currents (amiloride-sensitive), two electrode voltage clamp in oocytes in data set [2] of 70%.
As for “Texas red-labeled recombinant SPLUNC1 (from UniProt Q9NP55 20-256)”, in data set [3], the Kd came out at 0.055 µg/mL.
Consider Trypsin, for which the “cleavage of the fluorogenic substrate BGAR-MCA by 1.0 or 0.3 U/ml trypsin” value in data set [4] is given as 50 ng/ml rSPLUNC1 had only a modest affect (˜10%) on the ability of either 1.0 or 0.3 U/ml trypsin to cleave a fluorogenic substrate.
Biotin-ADGGLLLLNNPPPPQTVV (also called ADG) [Control peptide ABC (alphabetized G22-A39), biotinylated]: in [5], the binding result is “no binding”.

B1: V5-tagged SPLUNC1 expressed in Xenopus oocytes from injected cRNA (other, not shown: small tags and cut ends)
chain: T1 sequence
For the molecule B1, in data set [6], the “decrease in amiloride-sensitive current relative to control oocytes” value was approximately 70%.
For the molecule GGLPVPLDQTLPLNVNPA [S18 peptide (amino acids 22-39 of human SPLUNC1)], in data set [7], the “IC50, dose response of ASL height in CF HBECs 8 h post-S18 addition” value turned out to be 600 nM.
On to Biotin-GGLPVPLDQTLPLNVNPA (also called G22-A39) [Biotinylated S18 peptide], for which the binding result in data set [8] and in data set [9] was “no binding” in each case.
